From publication PMC2785583 (The Journal of Biological Chemistry, 2009)

Assays:
[1] = target: Protein FAF (F. magna adhesion factor), recombinant, amino acids 28-616 (Finegoldia magna); assay: SPR
SDS-PAGE = target: the molecule itself; assay: SDS-PAGE

- Kd [1]: 4.9 nM
B1: Recombinant human MIG/CXCL9 (monokine induced by gamma-interferon) (ligand, UniProt Q07325 23-125, looked up)
chain: TPVVRKGRCSCISTNQGTIHLQSLKDLKQFAPSPSCEKIEIIATLKNGVQTCLNPDSADVKELIKKWEKQVSQKKKQKNGKKHQKKKVLKVRKSQRSRQKKTT
- binding result (SDS-PAGE): binds
